What was measured:
Test in all cases: EMSA
TLS = TLS (UniProt P35637 1-526)
GST-TLS 211-526 = GST-TLS 211-526 (UniProt P35637 211-526)
GST-TLS 373-526 = GST-TLS 373-526 (UniProt P35637 373-526)
Sequence of GST-TLS 373-526 (P35637 373-526): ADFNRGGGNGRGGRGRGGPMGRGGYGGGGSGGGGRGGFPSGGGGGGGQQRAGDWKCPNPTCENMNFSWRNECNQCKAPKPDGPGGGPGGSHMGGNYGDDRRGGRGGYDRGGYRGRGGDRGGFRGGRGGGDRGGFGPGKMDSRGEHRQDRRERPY

Sequence of TLS (P35637 whole entry): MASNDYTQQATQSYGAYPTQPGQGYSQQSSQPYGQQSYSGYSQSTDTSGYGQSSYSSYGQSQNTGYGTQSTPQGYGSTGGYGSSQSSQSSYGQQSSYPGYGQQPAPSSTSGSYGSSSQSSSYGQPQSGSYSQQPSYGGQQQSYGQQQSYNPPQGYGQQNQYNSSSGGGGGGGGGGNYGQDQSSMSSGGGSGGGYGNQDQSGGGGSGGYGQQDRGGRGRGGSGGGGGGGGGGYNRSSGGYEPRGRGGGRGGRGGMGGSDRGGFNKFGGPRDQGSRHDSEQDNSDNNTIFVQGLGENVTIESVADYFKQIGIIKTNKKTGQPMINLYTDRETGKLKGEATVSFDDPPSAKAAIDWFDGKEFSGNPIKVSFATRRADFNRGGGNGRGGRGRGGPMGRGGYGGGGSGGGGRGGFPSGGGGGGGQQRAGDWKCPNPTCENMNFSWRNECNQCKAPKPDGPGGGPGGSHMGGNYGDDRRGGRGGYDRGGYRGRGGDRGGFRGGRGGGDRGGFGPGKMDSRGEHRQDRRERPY
Sequence of GST-TLS 211-526 (P35637 211-526): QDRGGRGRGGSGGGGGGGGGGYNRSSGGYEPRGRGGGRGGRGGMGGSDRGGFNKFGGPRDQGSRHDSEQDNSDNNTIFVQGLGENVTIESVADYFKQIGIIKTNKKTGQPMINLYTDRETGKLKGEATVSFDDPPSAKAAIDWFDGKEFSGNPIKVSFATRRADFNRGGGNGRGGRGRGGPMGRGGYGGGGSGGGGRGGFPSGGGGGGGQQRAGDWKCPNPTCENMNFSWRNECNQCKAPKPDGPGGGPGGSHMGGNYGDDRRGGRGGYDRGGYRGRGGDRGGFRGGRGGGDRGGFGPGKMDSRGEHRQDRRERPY

GACACCCCATATCCAAGCCGGCAGA (ssDNA) [DNA (complement of -454s)]
binding result (TLS): no binding

CCCGGGAUUUAGGGGGUGAGGUGGA (ssRNA) [-341a]
binding result (TLS): binds

UCUGCCGGCUUGGAUAUGGGGUGUC (ssRNA) [-454s (RNA in Fig. 4g)]
binding result (TLS): binds

UGGCAUCGUGAUGGACUCCGGUGAC (ssRNA) [β-actin RNA]
binding result (TLS): no binding

UCCAGCAGCAGCCCAAGAUGGUGGC (ssRNA) [-764a]
binding result (TLS): no binding

UUGUAUUUUGAGCUAGUUUGGUGAC (ssRNA) [GGUG-oligonucleotide]
binding result (GST-TLS 211-526): binds
binding result (GST-TLS 373-526): binds
binding result (TLS): binds

B1: RNA:DNA hybrid of -454s (DNA:RNA)
RNA: UCUGCCGGCUUGGAUAUGGGGUGUC
DNA: GACACCCCATATCCAAGCCGGCAGA
binding result (TLS): no binding

From paper PMC2823488
